The values that follow come from US20250121002A1 (NOILE IMMUNE BIOTECH, published 2025).

First the molecules themselves.
B1: third generation anti-EGFRviiiCAR with scFv S#026 VL25VH (SG) of the 1B10-1A12 clone, on PRIME EGFRviii CAR-T cells (other)
chain: DVVMTQTPLSLPVSLEDQASISCRSSQSLVHSSGKTYLQWYLQKPGQSPKLLIYSVSNRFSGVPDRFSGSGSGRDFTLKISRVEAEDLGVYFCSQSTHVPWTFGGGTKLEIKSSADDAKKDAAKKDDAKKDDAKKDGQVTLKESGPGILQPSQTLSLTCSFSGFSLSTSGMGVSWIRQPSGKGLEWLAHIFWDDDKRYNPSLKSRLTISKDTSTNQVFLKITSVDTADTATYYCARNYGFDVWGAGTTVTVSS
notes: also called PRIME EGFRviii CAR-T cells based on the 1B10-1A12 clone; not shown: rest of the third generation CAR: human CD8 transmembrane region and human CD28-4-1BB-CD3zeta intracellular signal trans
B2: anti-EGFRviiiCAR with VL25VH (SG) type scFv based on the 2H9-1B5 clone, on PRIME EGFRviii CAR-T cells (other)
chain: DVVVTQTPLSLPVSLEDQASISCRSSRSLVHSSGKTYLQWYLQKPGQSPKLLIYSVSNRFSGVPDRFSGSGSGRDFTLKINRVEAEDLGVYFCSQSTHVPWTFGGGTKLEIKSSADDAKKDAAKKDDAKKDDAKKDGQVTLKESGPGILQPSQTLSLTCSLSGFSLSTSGMGVSWIRQPSGKGLEWLAHIYWDDDTRYNPSLKRRLTISKDTSTNQVFLKITSVDTADTATYYCARNYGFDVWGAGTTVTVSS
notes: also called PRIME EGFRviii CAR-T cells based on the 2H9-1B5 clone; not shown: rest of the CAR, produced 'in a manner similar to that based on the 1B10-1A12 clone' (third generation: CD8 transmembran)
B3: anti-EGFRviiiCAR with VL25VH (SG) type scFv based on the 3C2-1B10 clone, on PRIME EGFRviii CAR-T cells (other)
chain: DVVVTQTPLSLPVSLGDQASISCRSSQSLVHSSGITYLQWYLQKPGQSPKLLIYKVSTRFSGVPDRFSGSGSGTDFTLRISRVEAEELGVYFCSQSTHIPWTFGGGTKLEIKSSADDAKKDAAKKDDAKKDDAKKDGQVTLKESGPGILQPSQTLSLACSFSGFSLSTSGMGVSWIRQPSGKGLEWLAHIYWDDDRRYNPSLKSRLTISRDTSSNQVFLRITSVDTADTATYYCARNYGFDVWGAGTTVTVSS
notes: also called PRIME EGFRviii CAR-T cells based on the 3C2-1B10 clone; not shown: rest of the CAR, produced 'in a manner similar to that based on the 1B10-1A12 clone' (third generation: CD8 transmembran)

The target of the assay is T1, recombinant EGFRviii protein (UniProt P00533 25-645).
T1 construct: EGFRviii is a deletion variant of it; The construct is not described
Put plainly: flow cytometry; CAR-T cells stained with recombinant EGFRviii protein. From the text:
CytoFLEX S (manufactured by Beckman Coulter, Inc.) was used as the flow cytometer, and FlowJo software (manufactured by Tree Star, Inc.) was used for data analysis.
A general note: Flow cytometry measures light scatter and fluorescence of single cells or particles in a stream.
In the case of B1, the “flow cytometer measurement result (percent of cells stained with recombinant EGFRviii protein)” value was 32.4%. Then B2, with 3.6%; and B3, with 1.4%.
